Values of other authors as cited in paper PMC7970000.
Where two headings read alike, the source gives them in different places. Blank lines part the entries; values can stand above or below the substance they belong to.

Experiments:
[1] = target: SNX3-retromer complex (Homo sapiens) (UniProt O60493)
VPS29 (Homo sapiens) [2] = target: VPS29 (Homo sapiens) (UniProt Q9UBQ0)
retromer (Homo sapiens) = retromer (Homo sapiens) (UniProt O75436)
VPS29 (Homo sapiens) [3] = target: VPS29 (Homo sapiens) (UniProt Q9UBQ0); remark: listed apart in the source

Chain of UniProt O75436 (O75436 whole entry): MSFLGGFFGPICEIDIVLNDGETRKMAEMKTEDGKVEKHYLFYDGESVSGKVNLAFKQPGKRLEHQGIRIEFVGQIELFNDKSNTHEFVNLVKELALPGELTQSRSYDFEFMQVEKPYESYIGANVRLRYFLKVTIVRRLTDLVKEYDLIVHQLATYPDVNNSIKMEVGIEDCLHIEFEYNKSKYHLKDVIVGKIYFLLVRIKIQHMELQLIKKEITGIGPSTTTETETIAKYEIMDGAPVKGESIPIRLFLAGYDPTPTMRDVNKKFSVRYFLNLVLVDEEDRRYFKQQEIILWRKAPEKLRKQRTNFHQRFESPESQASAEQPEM
Chain of UniProt O60493 (O60493 2-162, chain 1 of 2): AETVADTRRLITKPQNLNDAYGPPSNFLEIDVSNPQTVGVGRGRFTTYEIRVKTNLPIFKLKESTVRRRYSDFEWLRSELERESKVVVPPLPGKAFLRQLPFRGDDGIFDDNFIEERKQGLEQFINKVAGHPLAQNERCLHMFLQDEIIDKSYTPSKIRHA
Chain of UniProt O60493 (O75436 whole entry, chain 2 of 2, further chain): as the sequence (O75436 whole entry) above

Kd [1]: 127 µM
Substance: DMT1-II (from UniProt P49281)

Kd (VPS29 (Homo sapiens) [2]): 20 µM
Kd (retromer (Homo sapiens)): 0.335 µM
Substance: TBC1D5 (from UniProt Q92609)

Kd (VPS29 (Homo sapiens) [3]): 3.5 µM
Substance: VARP CHPLCxCxxC motif (from UniProt Q96NW4)
